Results: patent publication US20080027145A1 (published 2008)
Where two headings read alike, the source gives them in different places.

Experiments:
[1] = biological target: T1, human Bcl-w ΔC29 (C29S A128E) (human, UniProt Q92843 1-164); assay: Biacore solution competition against immobilised mouse wtBimBH3
T1 construct: range 1-164; residues 1-209), which are those of Bcl-xL; also called hBcl-w
T1 sequence: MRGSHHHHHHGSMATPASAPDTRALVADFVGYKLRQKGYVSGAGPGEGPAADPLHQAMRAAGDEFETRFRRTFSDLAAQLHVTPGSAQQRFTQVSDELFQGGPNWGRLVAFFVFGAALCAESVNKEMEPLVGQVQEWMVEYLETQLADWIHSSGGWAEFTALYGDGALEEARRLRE
Description: (§1) The baseline response (control channel) was subtracted to obtain the absolute binding response. […] Theoretically, IC50=[A]/2+KD, where [A] is the analyte concentration.
(§2) To assess if other BH3 peptides bind pro-survival proteins similarly, we directly compared their binding affinities in solution using a competitive binding assay. […] As the IC50 values reflect relative binding affinities (see Experimental Procedures), we used this assay to compare the binding affinities of eight BH3 peptides (Table 3) to the five pro-survival proteins.

human Bcl-2 ΔC22 [2] = biological target: T2, human Bcl-2 ΔC22 (human, UniProt P10415 1-217); assay: as above
T2 construct: Recombinant, bacterial, N-terminal HexaHis fusion; hydrophobic C-terminus removed; also called hBcl-2
T2 sequence (P10415 other isoform, or with tags, fused parts or gaps mutant limits assumed): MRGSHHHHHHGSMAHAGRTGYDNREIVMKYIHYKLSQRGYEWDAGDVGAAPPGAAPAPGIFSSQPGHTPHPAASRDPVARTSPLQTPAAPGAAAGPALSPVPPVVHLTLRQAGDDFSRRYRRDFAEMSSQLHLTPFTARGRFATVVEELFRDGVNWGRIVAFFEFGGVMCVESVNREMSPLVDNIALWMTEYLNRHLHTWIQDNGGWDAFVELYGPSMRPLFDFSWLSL
Description: as §1, §2

human Bcl-xL ΔC24 [3] = biological target: T3, human Bcl-xL ΔC24 (human, UniProt Q07817 1-209); assay: as above
T3 construct: Expressed as GST fusion and cleaved off the glutathione column; also called hBcl-xL ΔC24
T3 sequence (Q07817 other isoform, or with tags, fused parts or gaps mutant limits assumed): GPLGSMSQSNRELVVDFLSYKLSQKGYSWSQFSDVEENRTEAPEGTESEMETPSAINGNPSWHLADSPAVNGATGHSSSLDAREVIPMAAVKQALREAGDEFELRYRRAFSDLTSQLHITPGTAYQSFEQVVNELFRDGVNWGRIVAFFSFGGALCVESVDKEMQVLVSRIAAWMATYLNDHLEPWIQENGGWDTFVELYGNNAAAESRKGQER
Description: as §1, §2

[4] = biological target: T1, human Bcl-w ΔC29 (C29S A128E); assay: solution competition on Biacore
human Bcl-2 ΔC22 [5] = biological target: T2, human Bcl-2 ΔC22; assay: solution competition on Biacore
human Bcl-xL ΔC24 [6] = biological target: T3, human Bcl-xL ΔC24; assay: solution competition on Biacore
human Bcl-xL ΔC24 [7] = biological target: T3, human Bcl-xL ΔC24; assay: solution competition on Biacore, immobilised m wtBimBH3
Description: as §1

human Bcl-xL ΔC24 [8] = biological target: T3, human Bcl-xL ΔC24; assay: SPR direct binding, protein over immobilised NoxaBH3
Experimental: Affinity measurements were performed at room temperature on a Biacore 3000 biosensor (Biacore) with HBS (10 mM HEPES pH 7.2, 150 mM NaCl, 3.4 mM EDTA, 0.005% Tween 20) as the running buffer. […] Residual bound proteins were desorbed with 50 mM NaOH or 6 M GuHCl (pH 7.2), followed by two washes with running buffer. Binding kinetics were derived from sensorgrams, following subtraction of baseline responses, using BIA evaluation software (version 3, Biacore) (Wilson-Annan et al., Supra).

human Bcl-2 ΔC22 [9] = biological target: T2, human Bcl-2 ΔC22; assay: Biacore solution competition against immobilised mouse wtBimBH3; remark: listed apart in the source
Description: as §1

[10] = biological target: T1, human Bcl-w ΔC29 (C29S A128E); assay: solution competition on Biacore (FIG. 9C)
Description: as §1

human Bcl-xL ΔC24 [11] = biological target: T3, human Bcl-xL ΔC24; assay: solution competition on Biacore (IC50 ratio)
[12] = biological target: T1, human Bcl-w ΔC29 (C29S A128E); assay: Biacore solution competition against immobilised mouse wtBimBH3; remark: listed apart in the source
Description: as §1

human Bcl-xL ΔC24 [13] = biological target: T3, human Bcl-xL ΔC24; assay: solution competition on Biacore (FIG. 9C)
Description: as §1

[14] = biological target: T4, FLAG-tagged mouse Mcl-1 (full-length) (mouse, UniProt P97287 1-331); assay: co-immunoprecipitation from 293T lysates, 35S fluorography (D) and immunoblot of the same filters (E) [E]
T4 construct: whole, on cells; Full-length, expressed in 293T cells, precipitated from lysates; also called FLAG-Mcl-1; Mcl-1 (in cells)
T4 sequence (P97287 other isoform, or with tags, fused parts or gaps): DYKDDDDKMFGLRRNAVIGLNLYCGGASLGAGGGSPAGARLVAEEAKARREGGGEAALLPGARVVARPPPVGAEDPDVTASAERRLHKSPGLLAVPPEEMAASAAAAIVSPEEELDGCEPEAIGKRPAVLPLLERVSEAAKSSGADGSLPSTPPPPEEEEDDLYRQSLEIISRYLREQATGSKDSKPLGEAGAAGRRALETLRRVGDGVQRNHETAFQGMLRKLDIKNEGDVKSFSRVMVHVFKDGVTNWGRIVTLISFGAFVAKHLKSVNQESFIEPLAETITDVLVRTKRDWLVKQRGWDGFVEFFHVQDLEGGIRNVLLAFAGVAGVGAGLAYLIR
Description: (§3) Equivalent ³⁵S-labeled lysates harvested from 293T cells were immunoprecipitated with antibodies to the HA, FLAG (FL) or control (C) tags.
(§4) The maintenance, transfection and metabolic labeling of the human embryonic kidney (HEK) 293T cells with ³⁵S-methionine/cysteine (NEN) as well as co-immunoprecipitation have been described (Huang et al., Supra; Moriishi et al., Proc Natl Acad Sci USA 96:9683-9688, 1999; O'Conner et al., Supra). Briefly, equivalent TCA-precipitable lysates were immunoprecipiated using the mouse monoclonal antibodies to HA (HA.11; CRP), FLAG (M2; Sigma) and control Glu-Glu (CRP) tags. The proteins were resolved by SDS:PAGE, transferred onto nitrocellulose membranes and detected by fluorography (Amplify; Amersham Biosciences).

[15] = biological target: T5, FLAG-tagged human Bcl-2 (full-length) (human, UniProt P10415 1-239); assay: co-immunoprecipitation from 293T lysates, 35S fluorography (F) and immunoblot of the same filters (G) [G]
T5 construct: whole, on cells; Full-length, expressed in 293T cells, precipitated from lysates; also called FLAG-Bcl-2; Bcl-2 (in cells)
T5 sequence (P10415 other isoform, or with tags, fused parts or gaps): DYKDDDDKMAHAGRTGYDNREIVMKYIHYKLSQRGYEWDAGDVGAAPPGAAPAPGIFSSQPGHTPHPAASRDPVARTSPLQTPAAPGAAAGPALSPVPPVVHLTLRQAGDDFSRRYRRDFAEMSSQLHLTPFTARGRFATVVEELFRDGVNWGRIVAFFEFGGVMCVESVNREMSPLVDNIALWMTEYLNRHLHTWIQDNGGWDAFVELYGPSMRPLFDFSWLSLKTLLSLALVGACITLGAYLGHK
Description: as §3, §4

[16] = biological target: T6, FLAG-tagged human Bcl-xL (full-length) (human, UniProt Q07817 1-233); assay: as above
T6 construct: whole, on cells; Full-length, expressed in 293T cells, precipitated from lysates; also called FLAG-Bcl-xL; Bcl-xL (in cells)
T6 sequence (Q07817 other isoform, or with tags, fused parts or gaps): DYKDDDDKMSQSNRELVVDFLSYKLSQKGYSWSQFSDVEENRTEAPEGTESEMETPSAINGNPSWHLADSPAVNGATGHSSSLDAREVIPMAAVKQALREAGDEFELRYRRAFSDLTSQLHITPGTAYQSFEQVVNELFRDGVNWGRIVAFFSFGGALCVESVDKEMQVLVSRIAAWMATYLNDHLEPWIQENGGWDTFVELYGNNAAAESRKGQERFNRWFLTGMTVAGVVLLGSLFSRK
Description: as §3, §4

human Bcl-xL ΔC24 [17] = biological target: T3, human Bcl-xL ΔC24; assay: Biacore solution competition against immobilised mouse wtBimBH3; remark: listed apart in the source
Description: FIG. 1 is a graphical representation showing competitive binding assays. […] (C) Solution competition assay. […] The line (at 430 s) indicates the response used for calculating the IC50. […] (Irregular responses after 500 s are due to washing the chips after analyte dissociation). Color reproductions are available from the patentees on request.
The baseline response (control channel) was subtracted to obtain the absolute binding response.

In the case of HRAEVQIARKLQCIADQFHRLHTQ (also called BmfBH3) [m Bmf (128-151) BH3 peptide], the IC50 [1] is reported as 9.8 nM, the IC50 (human Bcl-2 ΔC22 [2]) is reported as 3 nM and the IC50 (human Bcl-xL ΔC24 [3]) is reported as 9.7 nM.

B1: m Noxa2 (68-93) BH3 peptide (peptide)
peptide: PADLKDECAQLRRIGDKVNLRQKLLN
notes: also called mNoxa B; mouse Noxa BH3 peptide 2
B1: no binding [4]; no binding (human Bcl-2 ΔC22 [5]); no binding (human Bcl-xL ΔC24 [6]).

For PAELEVECATQLRRFGDKLNFRQKLL (also called NoxaBH3; wt NoxaBH3) [Noxa (18-43) BH3 peptide, human], the IC50 [1] was over 100000 nM, the IC50 (human Bcl-2 ΔC22 [2]) was over 100000 nM and the IC50 (human Bcl-xL ΔC24 [3]) was over 100000 nM. For the same binder, the IC50 (human Bcl-xL ΔC24 [7]) was over 100000 nM and the binding result (human Bcl-xL ΔC24 [8]) was “no binding”.

B2: Noxa (18-43) mt3 (peptide)
peptide: PAELEVECATQLRRIGDELNFRQKLL
notes: also called Noxa m3 (peptide); double mutant K35E F32I
For B2, the IC50 (human Bcl-xL ΔC24 [6]) was 100 nM, the binding result (human Bcl-2 ΔC22 [9]) was “binds” and the IC50 [10] was 410 nM. The IC50 (human Bcl-xL ΔC24 [7]) was 110 nM.

For PAELEVECATQLRRIGDKLNFRQKLL (also called Noxa m2; F32I) [Noxa (18-43) mt2], the “fold tighter than wild type” value (human Bcl-xL ΔC24 [11]) was at least 90 fold, the binding result [12] was “binds” and the IC50 (human Bcl-2 ΔC22 [9]) was over 100000 nM. For the same binder, the “fold increase of binding against wt NoxaBH3” value (human Bcl-xL ΔC24 [13]) was over 100 fold and the IC50 (human Bcl-xL ΔC24 [7]) was 1100 nM.

PAELEVECATQLRRFGDELNFRQKLL (also called Noxa m1; K35E) [Noxa (18-43) mt1] was tested, and the “fold tighter than the wild-type peptide” value (human Bcl-xL ΔC24 [11]) was at least 17 fold, the binding result [12] was “binds” and the IC50 (human Bcl-2 ΔC22 [9]) was over 100000 nM. The “fold increase of binding against wt NoxaBH3” value (human Bcl-xL ΔC24 [13]) was over 20 fold and the IC50 (human Bcl-xL ΔC24 [7]) was 5800 nM.

B3: HA-tagged full-length mouse Bad (other)
chain: YPYDVPDYAMGTPKQPSLAPAHALGLRKSDPGIRSLGSDAGGRRWRPAAQSMFQIPEFEPSEQEDASATDRGLGPSLTEDQPGPYLAPGLLGSNIHQQGRAATNSHHGGAGAMETRSRHSSYPAGTEEDEGMEEELSPFRGRSRSAPPNLWAAQRYGRELRRMSDEFEGSFKGLPRPKSAGTATQMRQSAGWTRIIQSWWDRNLGKGGSTPSQ
notes: whole, on cells; also called HA-Bad; Bad (in cells)
B3: no binding [14].

B4: HA-tagged full-length mouse Noxa (other)
chain: YPYDVPDYAMPGRKARRNAPVNPTRAELPPEFAAQLRKIGDKVYCTWSAPDITVVLAQMPGKSQKSRMRSPSPTRVPADLKDECAQLRRIGDKVNLRQKLLNLISKLFNLVT
notes: whole, on cells; also called HA-Noxa; Noxa (full-length mouse Noxa bearing two BH3s)
B4: no binding [15]; no binding [16].

B5: Hrk (26-51) BH3 peptide, human (peptide)
peptide: not shown
notes: also called HrkBH3
B5 showed an IC50 [1] of 49 nM, an IC50 (human Bcl-2 ΔC22 [2]) of 320 nM and an IC50 (human Bcl-xL ΔC24 [3]) of 3.7 nM.

With DIIRNIARHLAQVGDSMDRSIPPG (also called BidBH3) [Bid (81-104) BH3 peptide, human] the IC50 [1] was 40 nM, the IC50 (human Bcl-2 ΔC22 [2]) was 6800 nM and the IC50 (human Bcl-xL ΔC24 [3]) was 82 nM.

In the case of MEGSDALALRLACIGDEMDVSLRAP (also called BikBH3; hBik) [Bik (51-75) BH3 peptide, human], the IC50 [1] is reported as 12 nM, the IC50 (human Bcl-xL ΔC24 [3]) is reported as 43 nM and the “IC50 (read off the curve)” value (human Bcl-xL ΔC24 [17]) is reported as about 40 nM.

RAELPPEFAAQLRKIGDKVYCTWSAP (also called mouse Noxa BH3 peptide 1) [m Noxa1 (16-41) BH3 peptide]: no binding [4]; no binding (human Bcl-2 ΔC22 [5]); no binding (human Bcl-xL ΔC24 [6]).

NLWAAQRYGRELRRMSDEFVDSFKKG (also called BadBH3) [Bad (103-128) BH3 peptide, human] was tested, and the IC50 [1] was 30 nM, the IC50 (human Bcl-2 ΔC22 [2]) was 16 nM and the IC50 (human Bcl-xL ΔC24 [3]) was 5.3 nM.
